In one assay the target is T1, mouse serum albumin (mouse, UniProt P07724 25-608).
T1 construct: also called MSA
The assay is described as follows: SPR (ProteOn XPR36), Protein #5 captured on hFAP-coated GLC chip, serum albumin as analyte, PBST; flagged as overestimated, inaccurate fit. The protocol: (§1) All SPR measurements were performed using a ProteOn XPR36 instrument (BioRad) and a running buffer of PBS pH 7.4 containing 0.005% Tween 20® (PBST). The 1:1 Langmuir model was used for the fitting of SPR traces.
ProteOn setup for Protein #5 binding to serum albumin of different species. First, human FAP (hFAP) was coated on a GLC chip (BioRad) to a level of 700 RU before 50 nM Protein #5 was immobilized as analyte for 120 s (dissociation of 0 s) at constant flow of 100 μl/min to a level of 120 RU. The binding of the serum albumin to Protein #5 was measured by injecting human serum albumin (HSA), cynomolgus serum albumin (CSA) and mouse serum albumin (MSA) in a serial dilution of 100, 33, 11 and 3.7 nM with an association of 120 s and a dissociation of 600 s at a constant flow of 100 μl/min. HSA, CSA and MSA binding was measured serially and the hFAP/Protein #5 complex was regenerated each time with 10 mM glycine pH2 for 18 s at a flow of 100 μl/min. Thus, Protein #5 had to be re-immobilized on hFAP after each regeneration step. […] The kinetic was calculated on the first 300 s of dissociation.

Assay [1] addresses T2, biotinylated human CD40 (Acro Biosystem) (human, UniProt P25942 21-193, biotinylated (sites not given)).
T2 construct: Bought protein; also called Bio-hCD40; hCD40
The assay is described as follows: SPR (ProteOn XPR36), biotinylated CD40 on NLC chip, Protein #5 as analyte, PBST, 1:1 Langmuir. Here is the method: as §1
ProteOn setup for Protein #5 binding to CD40 of different species. CD40 proteins (Acro Biosystem) of different species (human, cynomolgus, mouse) were biotinylated with standard methods known in the art, resulting in bio-hCD40, bio-cCD40 and bio-mCD40 proteins. The bio-hCD40, bio-cCD40 and bio-mCD40 proteins were immobilized on an NLC chip (BioRad) to a level of respectively 300 RU, 250 RU and 300 RU. The interaction of Protein #5 with CD40 was measured by injecting Protein #5 in a serial dilution of 3, 1.5, 0.75, 0.38 and 0.19 nM with an association of 120 s and dissociation of 900 s using a constant flow of 100 μl/min. The measurement was repeated two or three times and the targets were regenerated between the individual measurements using 10 mM glycine pH 2 for 18 s at a flow of 100 μl/min. The signals were double referenced against the running buffer (PBST) treated control lanes.

A further assay has as its target T3, human FAP (recombinant) (human, UniProt Q12884 26-760).
T3 construct: also called hFAP; rhFAP
T3 sequence: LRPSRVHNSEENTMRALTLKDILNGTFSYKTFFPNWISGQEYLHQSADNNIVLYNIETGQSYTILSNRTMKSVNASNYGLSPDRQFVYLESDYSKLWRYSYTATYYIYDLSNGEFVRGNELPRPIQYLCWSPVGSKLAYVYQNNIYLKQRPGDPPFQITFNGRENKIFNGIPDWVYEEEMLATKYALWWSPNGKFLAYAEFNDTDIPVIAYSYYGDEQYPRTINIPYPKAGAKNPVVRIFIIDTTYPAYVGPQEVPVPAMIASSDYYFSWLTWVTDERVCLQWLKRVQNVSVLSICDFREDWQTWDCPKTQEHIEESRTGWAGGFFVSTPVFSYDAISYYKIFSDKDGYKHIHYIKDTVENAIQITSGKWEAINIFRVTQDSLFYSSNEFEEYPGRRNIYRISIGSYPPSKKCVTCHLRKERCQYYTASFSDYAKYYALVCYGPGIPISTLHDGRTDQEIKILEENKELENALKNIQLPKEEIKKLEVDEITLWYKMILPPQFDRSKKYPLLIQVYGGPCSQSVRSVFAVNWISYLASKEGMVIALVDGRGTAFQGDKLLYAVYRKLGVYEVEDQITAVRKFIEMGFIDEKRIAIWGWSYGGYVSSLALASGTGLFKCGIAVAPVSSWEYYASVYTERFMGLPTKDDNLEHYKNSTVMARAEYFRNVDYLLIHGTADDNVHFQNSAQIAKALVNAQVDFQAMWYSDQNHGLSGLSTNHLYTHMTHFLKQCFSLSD
In words: SPR (ProteOn XPR36), FAP immobilized on GLC chip, Protein #5 as analyte, PBST, 1:1 Langmuir. The protocol: as §1
ProteOn setup for Protein #5 binding to FAP of different species. hFAP, cynomolgus FAP (cFAP) and mouse FAP (mFAP) were immobilized on a GLC chip (BioRad) in 10 mM Na Acetate buffer pH5.3 to a level of 1200 RU, 800 RU and 2000 RU, respectively. The interaction of FAP and Protein #5 was measured by applying Protein #5 in a serial dilution of […] and 3.13 nM with an association of 120 s and dissociation of 1800 s using a constant flow of 100 μl/min. The targets were regenerated using 10 mM glycine pH 2 and 124 mM H₃PO₄. The signals were double referenced against the PBST treated control lanes.

In general, koff refers to the rate constant with which the complex falls apart. As usually defined, the kon is a measure of how fast the partners come together. As a reminder, the Kd is the equilibrium constant for the complex coming apart.

T2 sequence (P25942 21-193 H80K/K81H limits assumed): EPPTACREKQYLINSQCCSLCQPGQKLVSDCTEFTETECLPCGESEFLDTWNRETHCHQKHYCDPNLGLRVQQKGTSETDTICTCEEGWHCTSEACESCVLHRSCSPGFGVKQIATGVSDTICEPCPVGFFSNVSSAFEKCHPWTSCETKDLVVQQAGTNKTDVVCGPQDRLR

B1: DARPin Protein #5 (designed binder)
chain: GSDLGKKLLEAARAGQDDEVRELLKAGADVNAKDYFSHTPLHLAARNGHLKIVEVLLKAGADVNAKDFAGKTPLHLAAADGHLEIVEVLLKAGADVNAQDIFGKTPADIAADAGHEDIAEVLQKAAGSPTPTPTTPTPTPTTPTPTPTGSDLGKKLLEAARAGQDDEVRILLAAGADVNAKDVLGWTPLHLAAFEGHLEIVEVLLKAGADVNAKDKKGWTPLQLAARTGHLEIVEVLLKAGADVNAKDHIGATPLHLAAWQGHPEIVEVLLKAGADVNAQDKSGKTPADLAADAGHEDIAEVLQKAAGSPTPTPTTPTPTPTTPTPTPTGSDLGKKLLQAARAGQLDEVRELLKAGADVNAKDTWGFTPLHIAAESGHLEIVEVLLKAGADVNAKDVQGRTPLHIAAHSGHLEIVEVLLKAGADVNAKDFRGWTPLHLAAWSGHLEIVEILLKAGADVNAQDKSGKTPADLAARAGHQDIAEVLQKAAGSPTPTPTTPTPTPTTPTPTPTGSDLGKKLLQAARAGQLDEVRELLKAGADVNAKDTWGFTPLHIAAESGHLEIVEVLLKAGADVNAKDVQGRTPLHIAAHSGHLEIVEVLLKAGADVNAKDFRGWTPLHLAAWSGHLEIVEILLKAGADVNAQDKSGKTPADLAARAGHQDIAEVLQKAA
notes: also called SMA136; Molecule No. 1
Turning to B1, in the assay with mouse serum albumin, the koff was 0.0126 s⁻¹ and the on-rate constant (kon) is 315000 M⁻¹ s⁻¹. In assay [1], this molecule displayed a Kd of 0.103 nM, an off-rate constant (koff) of 0.00103 s⁻¹ and a kon of 1.01e+07 M⁻¹ s⁻¹. Also, in the assay with human FAP (recombinant), the dissociation constant Kd was determined as 0.307 nM, the koff came to 0.000126 s⁻¹ and the kon stood at 409000 M⁻¹ s⁻¹.

The record behind these values is patent US20210395318A1 (Molecular Partners, published 2021).
